Laboratory results from patent US20220347268A1 (MEDICENNA THERAPEUTICS, published 2022).
Where a chain is given by its changes, count along the chain named.

T1: IL-13Rα1
T1 construct: also called IL13Ra1
T1 chain: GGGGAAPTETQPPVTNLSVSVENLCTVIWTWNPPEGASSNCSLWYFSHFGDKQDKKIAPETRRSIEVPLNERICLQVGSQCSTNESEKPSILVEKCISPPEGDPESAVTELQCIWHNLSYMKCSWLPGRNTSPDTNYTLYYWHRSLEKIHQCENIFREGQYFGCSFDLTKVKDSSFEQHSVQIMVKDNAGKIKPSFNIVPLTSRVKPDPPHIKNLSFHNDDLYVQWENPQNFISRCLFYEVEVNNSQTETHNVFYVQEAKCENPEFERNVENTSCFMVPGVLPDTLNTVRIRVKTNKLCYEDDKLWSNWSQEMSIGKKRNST

T2: IL-13Rα2
T2 construct: also called IL13Ra2; CD213A2
T2 chain: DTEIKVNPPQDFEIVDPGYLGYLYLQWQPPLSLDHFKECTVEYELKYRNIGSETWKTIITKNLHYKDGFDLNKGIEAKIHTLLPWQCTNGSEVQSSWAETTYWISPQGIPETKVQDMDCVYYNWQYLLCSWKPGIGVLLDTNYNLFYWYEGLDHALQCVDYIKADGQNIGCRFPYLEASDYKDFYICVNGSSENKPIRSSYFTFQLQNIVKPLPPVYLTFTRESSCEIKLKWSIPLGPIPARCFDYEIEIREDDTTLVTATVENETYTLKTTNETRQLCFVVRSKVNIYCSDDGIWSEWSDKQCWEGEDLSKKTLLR

B1: C11 (ligand)
cytokine: PGPVPPSTAHRELIEELVNITQNQKAPLCNGSMVWSINLTAGMYCAALESLINVSGCSAIEKTQRMLSGFCPHKVSAGQFSSLHVTGRKIEVAQFVKDLLLHLKKLFKEGQFN
notes: grouped under 'IL-13Rα2 specific'; also called IL-13 variant C11
B2: C4 (ligand)
cytokine: B1 cytokine with H10V, T86R, G87D, R88T, K89R, L101N, K105E, K108T
notes: grouped under 'IL-13Rα2 specific'; also called IL-13 variant C4
B3: D7 (ligand)
cytokine: B1 cytokine with H10A, V18F, T86K, G87K, R88T, K89R, L101I, K104R
notes: grouped under 'IL-13Rα2 specific'; also called IL-13 variant D7
B4: A5 (ligand)
cytokine: B1 cytokine with H10L, R11I, V18I, T86K, R88S, L101H, K104R, K105A, F107M, K108R
notes: grouped under 'IL-13Rα1 specific'; also called IL-13 variant A5
B5: A6 (ligand)
cytokine: B1 cytokine with H10I, V18L, T86M, G87K, R88S, L101H, K104R, K105A, K108R
notes: grouped under 'IL-13Rα1 specific'; also called IL-13 variant A6
B6: A7 (ligand)
cytokine: B1 cytokine with H10I, V18I, T86R, R88S, L101H, K104R, K105A, K108R
notes: grouped under 'IL-13Rα1 specific'; also called IL-13 variant A7
B7: A8 (ligand)
cytokine: B1 cytokine with H10I, V18I, T86R, G87S, R88S, K89R, L101H, K104R, K105T, K108R
notes: grouped under 'IL-13Rα1 specific'; also called IL-13 variant A8
B8: A11 (ligand)
cytokine: B1 cytokine with H10V, V18I, T86R, G87S, R88S, L101F, K104R, K105T, K108R
notes: Grouped under 'IL-13Rα1 specific'; also called IL-13 variant A11
B9: B2 (ligand)
cytokine: B1 cytokine with H10L, V18I, R88S, L101Y, K104R, K105A, K108R
notes: grouped under 'IL-13Rα1 specific'; also called IL-13 variant B2
B10: B4 (ligand)
cytokine: B1 cytokine with H10L, R11S, V18I, T86K, R88S, K89M, L101Y, K104R, K105T, K108R
notes: grouped under 'IL-13Rα1 specific'; also called IL-13 variant B4
B11: B6 (ligand)
cytokine: B1 cytokine with H10T, V18I, T86R, R88S, L101Y, K104R, K105T, K108R
notes: grouped under 'IL-13Rα1 specific'; also called IL-13 variant B6

Target: T1, IL-13Rα1
Test: SPR, column KD (eq)

**Q.** How did the Kd turn out when B1 was run?
**A.** 1600 nM

Target: T2, IL-13Rα2
Test: SPR, kinetic (column K1)

**Q.** For B2, which kon is on record?
**A.** 1.94e+06 M⁻¹ s⁻¹

**Q.** B1 was tested. Which kon did it give?
**A.** 6.41e+06 M⁻¹ s⁻¹

**Q.** With B3 as the binder, how does the kon read?
**A.** 1.77e+07 M⁻¹ s⁻¹

Target: T1, IL-13Rα1
Test: SPR, kinetic (column K1)

**Q.** With B4 as the binder, how does the kon read?
**A.** 2.8e+06 M⁻¹ s⁻¹

**Q.** How did the kon turn out when B5 was run?
**A.** 1.77e+06 M⁻¹ s⁻¹

**Q.** With B6 as the binder, how does the kon read?
**A.** 2.9e+06 M⁻¹ s⁻¹

**Q.** B7 was tested. Which kon did it give?
**A.** 1.64e+06 M⁻¹ s⁻¹

**Q.** How did the kon turn out when B8 was run?
**A.** 1.64e+07 M⁻¹ s⁻¹

**Q.** With B9 as the binder, how does the kon read?
**A.** 6.3e+06 M⁻¹ s⁻¹

**Q.** How did the kon turn out when B10 was run?
**A.** 1.36e+06 M⁻¹ s⁻¹

**Q.** For B11, which kon is on record?
**A.** 1.4e+06 M⁻¹ s⁻¹

Target: T2, IL-13Rα2
Test: SPR, kinetic (column K-1)

**Q.** Which koff does the source give for B2 here?
**A.** 0.000764 s⁻¹

**Q.** B1 was tested. Which koff did it give?
**A.** 9.18e-07 s⁻¹

**Q.** How did the koff turn out when B3 was run?
**A.** 5.37e-05 s⁻¹

Target: T1, IL-13Rα1
Test: SPR, kinetic (column K-1)

**Q.** B4 was tested. Which koff did it give?
**A.** 0.0082 s⁻¹

**Q.** How did the koff turn out when B5 was run?
**A.** 0.0033 s⁻¹

**Q.** With B6 as the binder, how does the koff read?
**A.** 0.0034 s⁻¹

**Q.** How did the koff turn out when B7 was run?
**A.** 0.0033 s⁻¹

**Q.** B8 was tested. Which koff did it give?
**A.** 0.0013 s⁻¹

**Q.** With B9 as the binder, how does the koff read?
**A.** 0.0017 s⁻¹

**Q.** With B10 as the binder, how does the koff read?
**A.** 0.024 s⁻¹

**Q.** How did the koff turn out when B11 was run?
**A.** 0.0082 s⁻¹
